Data on one substance can be found in article PMC11840598.

The target in this assay is TM expressed on COS-7 cells from pTM-GFP recombinant plasmids (UniProt P07204). Kind of assay: atomic force microscopy.
UniProt P07204, sequence (P07204 19-575): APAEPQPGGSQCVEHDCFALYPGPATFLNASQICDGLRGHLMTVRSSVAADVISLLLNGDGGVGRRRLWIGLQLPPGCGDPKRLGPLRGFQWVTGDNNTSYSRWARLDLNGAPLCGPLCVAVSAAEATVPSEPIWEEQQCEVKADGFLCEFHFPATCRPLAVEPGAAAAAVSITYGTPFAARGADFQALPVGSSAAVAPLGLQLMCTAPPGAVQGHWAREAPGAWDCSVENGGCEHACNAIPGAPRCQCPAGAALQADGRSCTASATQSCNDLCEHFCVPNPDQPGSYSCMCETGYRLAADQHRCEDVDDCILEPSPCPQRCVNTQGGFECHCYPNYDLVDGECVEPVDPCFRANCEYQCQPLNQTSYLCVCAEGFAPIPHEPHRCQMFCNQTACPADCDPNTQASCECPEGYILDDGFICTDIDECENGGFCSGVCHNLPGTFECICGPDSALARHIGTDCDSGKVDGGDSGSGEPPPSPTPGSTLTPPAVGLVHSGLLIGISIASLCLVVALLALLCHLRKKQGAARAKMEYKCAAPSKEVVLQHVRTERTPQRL

In the case of “human alpha thrombin (from UniProt P00734 364-622) (enzyme)”, the interactional force (single-molecule rupture force), with atorvastatin was determined as 84 pN; the interactional force (single-molecule rupture force), with pitavastatin was 87 pN; the interactional force (single-molecule rupture force), with rosuvastatin was found to be 74.4 pN.
